From patent US20220242950A1 (CANTARGIA, published 2022) come the findings set out here.

Experiment [1] addresses T1, human IL1RAP on the cell surface (human, UniProt Q9NPH3 21-570).
T1 sequence (looked up): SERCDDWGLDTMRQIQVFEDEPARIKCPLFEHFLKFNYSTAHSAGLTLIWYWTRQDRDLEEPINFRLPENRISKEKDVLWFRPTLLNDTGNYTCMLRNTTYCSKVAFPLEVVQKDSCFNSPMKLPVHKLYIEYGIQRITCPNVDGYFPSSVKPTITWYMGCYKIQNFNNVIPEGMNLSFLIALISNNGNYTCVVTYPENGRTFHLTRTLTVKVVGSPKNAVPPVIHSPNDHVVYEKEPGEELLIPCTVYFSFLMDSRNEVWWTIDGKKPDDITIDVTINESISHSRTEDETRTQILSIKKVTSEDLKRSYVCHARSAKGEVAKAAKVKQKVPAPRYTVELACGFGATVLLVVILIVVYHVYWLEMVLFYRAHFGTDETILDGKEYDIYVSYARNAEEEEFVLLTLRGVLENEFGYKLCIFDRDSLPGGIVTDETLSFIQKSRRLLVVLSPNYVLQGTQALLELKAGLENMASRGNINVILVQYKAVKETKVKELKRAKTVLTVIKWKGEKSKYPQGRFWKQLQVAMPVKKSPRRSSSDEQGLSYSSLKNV
The experiment can be described thus: cell-based or functional assay.

For experiment [2], the target named is T2, recombinant hIL1RAP Domain1+2+3 (aa21-367) (human, UniProt Q9NPH3 21-367).
T2 construct: Numbering on Uniprot Q9NPH3
T2 sequence (looked up): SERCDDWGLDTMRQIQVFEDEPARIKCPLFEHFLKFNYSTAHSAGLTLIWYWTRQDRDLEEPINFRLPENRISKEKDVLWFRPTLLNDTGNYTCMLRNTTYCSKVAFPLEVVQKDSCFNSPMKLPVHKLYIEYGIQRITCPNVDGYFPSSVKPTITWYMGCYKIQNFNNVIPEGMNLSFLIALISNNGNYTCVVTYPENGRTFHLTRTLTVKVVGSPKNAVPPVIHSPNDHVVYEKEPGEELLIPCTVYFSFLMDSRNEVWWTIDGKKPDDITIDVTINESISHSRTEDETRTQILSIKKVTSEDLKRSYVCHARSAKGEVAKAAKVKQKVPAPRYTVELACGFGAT
The experiment can be described thus: bio-layer interferometry, human IL1RAP. On the procedure:
(§1) Affinity measurements were done on BLItz™ Label-Free Protein Analysis System from ForteBio, using the Basic Kinetics module in the BLItz Pro 1.3.1.3 software from Molecular Devices. Protein A biosensors were hydrated in blocking buffer (PBS, 0.5% BSA, 0.05% Tween 20, pH 7.4) for minimum 10 min at room temperature before coating. Protein A biosensors were coated with antibodies by dipping the biosensors in 200 μl of antibody solution (10 μg/ml in blocking buffer) for 30 min at room temperature. The sensors were then incubated in 200 μl blocking buffer for at least 10 min before use. […] The baseline was made in blocking buffer with a duration time of 30 sec. Association was made for 120 sec in hIL1RAP followed by 120 sec dissociation in blocking buffer.
KD values for affinity towards human IL1RAP are shown in Table 17 for the de-immunized h48D2 variants. Affinity was measured using bio-layer interferometry. […] See also Table 4 for a direct comparison of 48D2, humanized 48D2, and de-immunized h48D2.
In general terms: Biolayer interferometry detects binding as a change in optical thickness at a sensor tip.

Experiment [3] concerns the target T1, human IL1RAP on the cell surface. In words: cell-based or functional assay. The source holds these as a separate data set.
Experiment [4] addresses T2, recombinant hIL1RAP Domain1+2+3 …. The experiment can be described thus: bio-layer interferometry, human IL1RAP. As for the experimental part: as §1
The antibodies were characterized for A) binding (ELISA analysis, human and cynomolgus monkey IL1RAP), B) inhibition of cytokine signaling (HEK-Blue™ assay), C) affinity (Bio-layer interferometry), D) size heterogeneity (SE-HPLC) and E) yield (concentration, A280). […] SE-HPLC was performed using standard procedures and PBS as running buffer. Affinity and cytokine inhibition were measured as previously described in Example 10. All 25 humanized clones were analyzed for blocking activity on IL-1α, IL-1β and IL-33 signaling while only the clones that had retained the inhibitory activity similar to chimeric 48D2 were analyzed for IL-36 inhibition.
KD values for affinity towards human IL1RAP are shown in Table 11 for the humanized 48D2 variants. Affinity was measured using bio-layer interferometry. […] See also Table 4 for a direct comparison of chimeric 48D2, humanized 48D2 variant VH5:VL4, and a humanized and de-immunized 48D2 variant VH5.GL:VL4.
The source holds these as a separate data set.

The target is the same in experiment [5]. In words: binding ELISA, coated recombinant hIL1RAP aa21-367. For orientation: An ELISA detects its analyte on a solid surface through an enzyme-linked reagent.
For experiment [6], the target named is T3, recombinant mf IL1RAP aa21-367 (cynomolgus monkey (Macaca fascicularis), UniProt A0A2K5X5J5 21-367).
T3 construct: also called cynomolgus monkey IL1RAP; cyno IL1RAP
T3 sequence: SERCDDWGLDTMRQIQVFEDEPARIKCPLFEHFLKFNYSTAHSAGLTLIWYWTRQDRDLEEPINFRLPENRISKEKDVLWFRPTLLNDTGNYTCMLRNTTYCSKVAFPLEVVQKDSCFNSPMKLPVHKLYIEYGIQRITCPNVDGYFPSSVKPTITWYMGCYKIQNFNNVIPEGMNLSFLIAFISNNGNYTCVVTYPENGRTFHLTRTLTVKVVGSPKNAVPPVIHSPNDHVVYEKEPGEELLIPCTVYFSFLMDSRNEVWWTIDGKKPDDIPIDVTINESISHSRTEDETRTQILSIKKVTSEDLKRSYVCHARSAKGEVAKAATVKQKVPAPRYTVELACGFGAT
In words: binding ELISA, coated recombinant mf IL1RAP aa21-367.

Read-outs that look alike come from different tables or passages of the source.

B1: h48D2 VH5.AP:VL4 (antibody, human IgG1, kappa, L234A L235A, V domains shown)
VH: QEQLEESGGGLVKPGGTLSLTCTVSGPSLSHFDITWIRQPPGSGLEWIGTISPGVSTYYASWAKSRVTISVDTSLNTVSLKLSSVTAADTATYFCARGGVGSSWKAFDLWGPGTLVTISS
VL: ELVMTQSPSSVSASVGDRVTITCQASESISTALAWYQQKPGKAPKLLIYKASTLPSGVPSRFSGSGSGTDFTLTINSLQPEDFATYYCQQGFSSGNVHNAFGGGTKVEIKR
notes: Humanized and de-immunized; also called VL4:VH5.AP
Turning to B1, in experiment [1], the “IC50 of IL-1α signaling (HEK-Blue assay)” value is 0.209 nM, the “IC50 of IL-1β signaling (HEK-Blue assay)” value came out at 0.122 nM, the “IC50 of IL-33 signaling (HEK-Blue assay)” value came to 1.48 nM and the “IC50 of IL-36α signaling (HEK-Blue assay)” value turned out to be 0.132 nM. In addition, in experiment [1], the “IC50 of IL-36β signaling (HEK-Blue assay)” value amounted to 0.146 nM and the “IC50 of IL-36γ signaling (HEK-Blue assay)” value came to 0.182 nM. Moreover, the Kd (in general, the equilibrium constant for the complex coming apart) in experiment [2] came out at 1.7 nM.

B2: h48D2 VH4:VL4 (antibody, human IgG1, kappa, L234A L235A, V domains shown)
VH: QVQLQESGPGLVKPSETLSLTCTVSGPSLSHFDITWIRQPPGKGLEWIGTISPGVSTYYASWAKSRFTISVDTSKNQFSLKLTSVTAADTATYYCARGGVGSSWKAFDLWGPGTLVTVSS
VL: ELVMTQSPSSVSASVGDRVTITCQASESISTALAWYQQKPGKAPKLLIYKASTLPSGVPSRFSGSGSGTDFTLTINSLQPEDFATYYCQQGFSSGNVHNAFGGGTKVEIKR
notes: Humanized; also called VL4:VH4
On to B2, for which, in experiment [3], the “IC50 of IL-1β signaling (HEK-Blue assay)” value amounted to 4.67 nM and the “IC50 of IL-33 signaling (HEK-Blue assay)” value amounted to 260 nM. The Kd in experiment [4] was determined as 22.8 nM. In experiment [5], the IC50 (commonly the concentration that gives 50% inhibition) was 0.0243 µg/mL. Moreover, the IC50 in experiment [6] stood at 0.0251 µg/mL.

B3: h48D2 VH5.SK:VL4 (antibody, human IgG1, kappa, L234A L235A, V domains shown)
VH: QEQLEESGGGLVKPGGTLSLTCTVSGPSLSHFDITWIRQAPGKGLEWIGTISPGVSTYYASWAKSRVTISVDTSLNTVSLKLSSVTAADTATYFCARGGVGSSWKAFDLWGPGTLVTISS
VL: ELVMTQSPSSVSASVGDRVTITCQASESISTALAWYQQKPGKAPKLLIYKASTLPSGVPSRFSGSGSGTDFTLTINSLQPEDFATYYCQQGFSSGNVHNAFGGGTKVEIKR
notes: Humanized and de-immunized; also called VL4:VH5.SK
Regarding B3, in experiment [1], the “IC50 of IL-1α signaling (HEK-Blue assay)” value was found to be 0.213 nM, the “IC50 of IL-1β signaling (HEK-Blue assay)” value was 0.099 nM, the “IC50 of IL-33 signaling (HEK-Blue assay)” value was 5.44 nM and the “IC50 of IL-36α signaling (HEK-Blue assay)” value was 0.143 nM. Besides, in experiment [1], the “IC50 of IL-36β signaling (HEK-Blue assay)” value was 0.108 nM and the “IC50 of IL-36γ signaling (HEK-Blue assay)” value is 0.17 nM. The Kd in experiment [2] was 2 nM.

B4: h48D2 VH4:VL3 (antibody, human IgG1, kappa, L234A L235A, V domains shown)
VH: QVQLQESGPGLVKPSETLSLTCTVSGPSLSHFDITWIRQPPGKGLEWIGTISPGVSTYYASWAKSRFTISVDTSKNQFSLKLTSVTAADTATYYCARGGVGSSWKAFDLWGPGTLVTVSS
VL: DILLTQTPSVVSASVGDRVTITCQASESISTALAWYQQKPGQAPRLLIYKASTLPSGVPSRFRGSGSGTDFTLTITSLQPEDFATYYCQQGFSSGNVHNAFGGGTRLEIKR
notes: Humanized; also called VL3:VH4
Regarding B4, the “IC50 of IL-1β signaling (HEK-Blue assay)” value in experiment [3] was determined as 2.97 nM. Moreover, the “IC50 of IL-33 signaling (HEK-Blue assay)” value in experiment [3] was found to be 7030 nM. For the same molecule, in experiment [4], the Kd stood at 16.7 nM. Also, the IC50 came out at 0.0312 µg/mL in experiment [5] and 0.0302 µg/mL in experiment [6].

B5: h48D2 VH4:VL5 (antibody, human IgG1, kappa, L234A L235A, V domains shown)
VH: QVQLQESGPGLVKPSETLSLTCTVSGPSLSHFDITWIRQPPGKGLEWIGTISPGVSTYYASWAKSRFTISVDTSKNQFSLKLTSVTAADTATYYCARGGVGSSWKAFDLWGPGTLVTVSS
VL: APVLTQSPATLEASVGDRVTITCQASESISTALAWYQQKPGQPPKLLIYKASTLPSGVPSRFSGSGSGTEFTLTISDLESDDAATYYCQQGFSSGNVHNAFGGGTEVVVKR
notes: Humanized; also called VL5:VH4
B5: in experiment [3], the “IC50 of IL-1β signaling (HEK-Blue assay)” value was 0.273 nM and the “IC50 of IL-33 signaling (HEK-Blue assay)” value was 74.3 nM. Besides, the Kd in experiment [4] was 15 nM. For the same molecule, in experiment [5], the IC50 was found to be 0.0258 µg/mL. Also, in experiment [6], the IC50 came out at 0.0244 µg/mL.
